To fix the notation:
B1: Benzoyl-[Ser26, Cha27,28,36, Aib31]-PYY(25-36) (peptide)
peptide: Bz-RS[Cha][Cha]NL[Aib]TRQR[Cha]-NH2
SMILES: CC(C)C[C@H](NC(=O)[C@H](CC(N)=O)NC(=O)[C@H](CC1CCCCC1)NC(=O)[C@H](CC1CCCCC1)NC(=O)[C@H](CO)NC(=O)[C@H](CCCNC(=N)N)NC(=O)c1ccccc1)C(=O)NC(C)(C)C(=O)N[C@H](C(=O)N[C@@H](CCCNC(=N)N)C(=O)N[C@@H](CCC(N)=O)C(=O)N[C@@H](CCCNC(=N)N)C(=O)N[C@@H](CC1CCCCC1)C(N)=O)[C@@H](C)O
B2: Isobutanoyl-[Abu26, Cha27,28,36, His30, Aib31]-PYY(25-36) (peptide)
peptide: Isobutyryl-R[Abu][Cha][Cha]NH[Aib]TRQR[Cha]-NH2
SMILES: CC[C@H](NC(=O)[C@H](CCCNC(=N)N)NC(=O)C(C)C)C(=O)N[C@@H](CC1CCCCC1)C(=O)N[C@@H](CC1CCCCC1)C(=O)N[C@@H](CC(N)=O)C(=O)N[C@@H](Cc1c[nH]cn1)C(=O)NC(C)(C)C(=O)N[C@H](C(=O)N[C@@H](CCCNC(=N)N)C(=O)N[C@@H](CCC(N)=O)C(=O)N[C@@H](CCCNC(=N)N)C(=O)N[C@@H](CC1CCCCC1)C(N)=O)[C@@H](C)O
B3: Isobutanoyl-[Abu26, Cha27,28,36, Gly(cPr)31]-PYY(25-36) (peptide)
peptide: Isobutyryl-R[Abu][Cha][Cha]NL[Gly(cPr)]TRQR[Cha]-NH2
SMILES: CC[C@H](NC(=O)[C@H](CCCNC(=N)N)NC(=O)C(C)C)C(=O)N[C@@H](CC1CCCCC1)C(=O)N[C@@H](CC1CCCCC1)C(=O)N[C@@H](CC(N)=O)C(=O)N[C@@H](CC(C)C)C(=O)N[C@H](C(=O)N[C@H](C(=O)N[C@@H](CCCNC(=N)N)C(=O)N[C@@H](CCC(N)=O)C(=O)N[C@@H](CCCNC(=N)N)C(=O)N[C@@H](CC1CCCCC1)C(N)=O)[C@@H](C)O)C1CC1
B4: Isobutanoyl-[Abu26, Cha27,36, Gly(cPr)28, Aib31]-PYY(25-36) (peptide)
peptide: Isobutyryl-R[Abu][Cha][Gly(cPr)]NL[Aib]TRQR[Cha]-NH2
SMILES: CC[C@H](NC(=O)[C@H](CCCNC(=N)N)NC(=O)C(C)C)C(=O)N[C@@H](CC1CCCCC1)C(=O)N[C@H](C(=O)N[C@@H](CC(N)=O)C(=O)N[C@@H](CC(C)C)C(=O)NC(C)(C)C(=O)N[C@H](C(=O)N[C@@H](CCCNC(=N)N)C(=O)N[C@@H](CCC(N)=O)C(=O)N[C@@H](CCCNC(=N)N)C(=O)N[C@@H](CC1CCCCC1)C(N)=O)[C@@H](C)O)C1CC1
B5: Isobutanoyl-[Abu26, Cha27,28, Aib31, Tyr(2F)36]-PYY(25-36) (peptide)
peptide: Isobutyryl-R[Abu][Cha][Cha]NL[Aib]TRQR[Tyr(2-F)]-NH2
SMILES: CC[C@H](NC(=O)[C@H](CCCNC(=N)N)NC(=O)C(C)C)C(=O)N[C@@H](CC1CCCCC1)C(=O)N[C@@H](CC1CCCCC1)C(=O)N[C@@H](CC(N)=O)C(=O)N[C@@H](CC(C)C)C(=O)NC(C)(C)C(=O)N[C@H](C(=O)N[C@@H](CCCNC(=N)N)C(=O)N[C@@H](CCC(N)=O)C(=O)N[C@@H](CCCNC(=N)N)C(=O)N[C@@H](Cc1ccc(O)cc1F)C(N)=O)[C@@H](C)O
B6: Isobutanoyl-[Abu26, Cha27,28,36, Gln30, Aib31]-PYY(25-36) (peptide)
peptide: Isobutyryl-R[Abu][Cha][Cha]NQ[Aib]TRQR[Cha]-NH2
SMILES: CC[C@H](NC(=O)[C@H](CCCNC(=N)N)NC(=O)C(C)C)C(=O)N[C@@H](CC1CCCCC1)C(=O)N[C@@H](CC1CCCCC1)C(=O)N[C@@H](CC(N)=O)C(=O)N[C@@H](CCC(N)=O)C(=O)NC(C)(C)C(=O)N[C@H](C(=O)N[C@@H](CCCNC(=N)N)C(=O)N[C@@H](CCC(N)=O)C(=O)N[C@@H](CCCNC(=N)N)C(=O)N[C@@H](CC1CCCCC1)C(N)=O)[C@@H](C)O
B7: Isobutanoyl-[Abu26, Cha27,28, Aib31, Tyr(3F)36]-PYY(25-36) (peptide)
peptide: Isobutyryl-R[Abu][Cha][Cha]NL[Aib]TRQR[Tyr(3-F)]-NH2
SMILES: CC[C@H](NC(=O)[C@H](CCCNC(=N)N)NC(=O)C(C)C)C(=O)N[C@@H](CC1CCCCC1)C(=O)N[C@@H](CC1CCCCC1)C(=O)N[C@@H](CC(N)=O)C(=O)N[C@@H](CC(C)C)C(=O)NC(C)(C)C(=O)N[C@H](C(=O)N[C@@H](CCCNC(=N)N)C(=O)N[C@@H](CCC(N)=O)C(=O)N[C@@H](CCCNC(=N)N)C(=O)N[C@@H](Cc1ccc(O)c(F)c1)C(N)=O)[C@@H](C)O
B8: Isobutanoyl-[Abu26, Gly27, Cha28,36, Aib31]-PYY(25-36) (peptide)
peptide: Isobutyryl-R[Abu]G[Cha]NL[Aib]TRQR[Cha]-NH2
SMILES: CC[C@H](NC(=O)[C@H](CCCNC(=N)N)NC(=O)C(C)C)C(=O)NCC(=O)N[C@@H](CC1CCCCC1)C(=O)N[C@@H](CC(N)=O)C(=O)N[C@@H](CC(C)C)C(=O)NC(C)(C)C(=O)N[C@H](C(=O)N[C@@H](CCCNC(=N)N)C(=O)N[C@@H](CCC(N)=O)C(=O)N[C@@H](CCCNC(=N)N)C(=O)N[C@@H](CC1CCCCC1)C(N)=O)[C@@H](C)O
B9: Isobutanoyl-[Abu26, Cha27,28,36, Ser30, Aib31]-PYY(25-36) (peptide)
peptide: Isobutyryl-R[Abu][Cha][Cha]NS[Aib]TRQR[Cha]-NH2
SMILES: CC[C@H](NC(=O)[C@H](CCCNC(=N)N)NC(=O)C(C)C)C(=O)N[C@@H](CC1CCCCC1)C(=O)N[C@@H](CC1CCCCC1)C(=O)N[C@@H](CC(N)=O)C(=O)N[C@@H](CO)C(=O)NC(C)(C)C(=O)N[C@H](C(=O)N[C@@H](CCCNC(=N)N)C(=O)N[C@@H](CCC(N)=O)C(=O)N[C@@H](CCCNC(=N)N)C(=O)N[C@@H](CC1CCCCC1)C(N)=O)[C@@H](C)O
B10: Isobutanoyl-[Abu26, Cha27,28,36, Abu30, Aib31]-PYY(25-36) (peptide)
peptide: Isobutyryl-R[Abu][Cha][Cha]N[Abu][Aib]TRQR[Cha]-NH2
SMILES: CC[C@H](NC(=O)[C@H](CCCNC(=N)N)NC(=O)C(C)C)C(=O)N[C@@H](CC1CCCCC1)C(=O)N[C@@H](CC1CCCCC1)C(=O)N[C@@H](CC(N)=O)C(=O)N[C@@H](CC)C(=O)NC(C)(C)C(=O)N[C@H](C(=O)N[C@@H](CCCNC(=N)N)C(=O)N[C@@H](CCC(N)=O)C(=O)N[C@@H](CCCNC(=N)N)C(=O)N[C@@H](CC1CCCCC1)C(N)=O)[C@@H](C)O
B11: Isobutanoyl-[Abu26,27, Cha28,36, Aib31]-PYY(25-36) (peptide)
peptide: Isobutyryl-R[Abu][Abu][Cha]NL[Aib]TRQR[Cha]-NH2
SMILES: CC[C@H](NC(=O)[C@H](CCCNC(=N)N)NC(=O)C(C)C)C(=O)N[C@@H](CC)C(=O)N[C@@H](CC1CCCCC1)C(=O)N[C@@H](CC(N)=O)C(=O)N[C@@H](CC(C)C)C(=O)NC(C)(C)C(=O)N[C@H](C(=O)N[C@@H](CCCNC(=N)N)C(=O)N[C@@H](CCC(N)=O)C(=O)N[C@@H](CCCNC(=N)N)C(=O)N[C@@H](CC1CCCCC1)C(N)=O)[C@@H](C)O
B12: Tetrahydro-2H-pyran-4-yl-carbamoyl-[D-Pro24, Cha27,36, Leu(Me)28, Lys30, Aib31]-PYY(23-36) (peptide)
peptide: X10-S[dP]RH[Cha][tBuAla]NK[Aib]TRQR[Cha]-NH2
SMILES: C[C@@H](O)[C@H](NC(=O)C(C)(C)NC(=O)[C@H](CCCCN)NC(=O)[C@H](CC(N)=O)NC(=O)[C@H](CC(C)(C)C)NC(=O)[C@H](CC1CCCCC1)NC(=O)[C@H](Cc1c[nH]cn1)NC(=O)[C@H](CCCNC(=N)N)NC(=O)[C@H]1CCCN1C(=O)[C@H](CO)NC(=O)NC1CCOCC1)C(=O)N[C@@H](CCCNC(=N)N)C(=O)N[C@@H](CCC(N)=O)C(=O)N[C@@H](CCCNC(=N)N)C(=O)N[C@@H](CC1CCCCC1)C(N)=O
notes: also called compound No. 229
B13: Ac-[D-Pro24, Cha27,28, Aib31, DL-Phe(2,6-Me2)36]-PYY(23-36) (peptide)
peptide: Ac-S[dP]RH[Cha][Cha]NL[Aib]TRQRX-NH2
modifications: not fully specified (residue 14); printed as Ac-Ser-D-Pro-Arg-His-Cha-Cha-Asn-Leu-Aib-Thr-Arg-Gln-Arg-DL-Phe(2,6-Me2)-NH2; also: residue 36 is DL racemic
notes: residue 36 is a DL racemate; also called compound No. 201

Non-standard residues stand in square brackets, D forms with d. *: point of attachment. X10 = Tetrahydro‑2H‑pyran‑4‑yl‑carbamoyl, O=C(NC1CCOCC1)*; Tyr(3-F) = N[C@@H](Cc1ccc(O)c(F)c1)C(=O)O; Tyr(2-F) = N[C@@H](Cc1ccc(O)cc1F)C(=O)O; tBuAla = CC(C)(C)C[C@H](N)C(=O)O; Cha = N[C@@H](CC1CCCCC1)C(=O)O; Gly(cPr) = N[C@H](C(=O)O)C1CC1; Isobutyryl = CC(C)C(=O)*; Abu = CC[C@H](N)C(=O)O; Aib = CC(C)(N)C(=O)O; Bz = O=C(c1ccccc1)*

The target of one test is human Y2 receptor (human) (UniProt P49146). Kind of test: cell-based or functional assay.
Take B1: the GBA EC50 Ratio (vs PYY(3-36)), [35S]GTPγS stood at 6.
As to B2, the GBA EC50 Ratio (vs PYY(3-36)), [35S]GTPγS worked out at 20.
As to B3, the GBA EC50 Ratio (vs PYY(3-36)), [35S]GTPγS was 16.
Consider B4, for which the GBA EC50 Ratio (vs PYY(3-36)), [35S]GTPγS stood at 41.
Consider B5, for which the GBA EC50 Ratio (vs PYY(3-36)), [35S]GTPγS came out at 11.
For the molecule B6, the GBA EC50 Ratio (vs PYY(3-36)), [35S]GTPγS was found to be 22.
For B7, the GBA EC50 Ratio (vs PYY(3-36)), [35S]GTPγS stood at 20.
In the case of B8, the GBA EC50 Ratio (vs PYY(3-36)), [35S]GTPγS turned out to be 49.
Consider B9, for which the GBA EC50 Ratio (vs PYY(3-36)), [35S]GTPγS was found to be 28.
For the molecule B10, the GBA EC50 Ratio (vs PYY(3-36)), [35S]GTPγS is 21.
With B11, the GBA EC50 Ratio (vs PYY(3-36)), [35S]GTPγS was found to be 37.

The target of another test is T1, human Y2 receptor (human, UniProt P49146 1-381).
T1 construct: whole, on cells; used as membrane fraction of CHO/dhfr- cells stably expressing hY2R; also called hY2R; human NPY2R
T1 sequence (looked up): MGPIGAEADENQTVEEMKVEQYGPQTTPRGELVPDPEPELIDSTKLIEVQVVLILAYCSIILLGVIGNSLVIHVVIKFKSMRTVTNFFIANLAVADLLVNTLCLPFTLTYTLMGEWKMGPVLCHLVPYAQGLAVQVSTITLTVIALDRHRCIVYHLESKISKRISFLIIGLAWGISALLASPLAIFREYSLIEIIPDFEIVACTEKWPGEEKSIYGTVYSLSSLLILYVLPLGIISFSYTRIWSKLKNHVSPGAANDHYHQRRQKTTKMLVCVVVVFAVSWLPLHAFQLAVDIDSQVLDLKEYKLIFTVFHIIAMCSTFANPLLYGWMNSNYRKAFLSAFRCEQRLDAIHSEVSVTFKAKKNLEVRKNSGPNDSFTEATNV
The experiment in a line: RBA: displacement of [125I]-PYY from hY2R/CHO membranes. As for the experimental part: After incubation at room temperature for 60 minutes, the mixture was filtered through the cell harvester FilterMate (PerkinElmer) using UniFilter-96 GF/C treated with polyethylenimine (PEI) solution (20 mM Tris, 0.3% PEI, pH 7.4), and the filter was washed 3 times with a filtering buffer (50 mM Tris, 5 mM MgCl₂, 150 mM NaCl, 0.03% NaN₃, 0.05% CHAPS, pH 7.4). Thereafter, UniFilter-96 GF/C was dried in a mechanical drier for 1 hour, 15 μl of the liquid scintillator MicroScint O (PerkinElmer) was added to each well, and a measurement was taken using TopCount (PerkinElmer). The data obtained were analyzed using Prism to calculate the IC₅₀ value.
On to B12, for which the “IC50 Ratio” value is 0.45 IC50 compound/IC50 PYY(3-36).
As to B13, the “IC50 Ratio” value is 1.6 IC50 compound/IC50 PYY(3-36).

For another test, the target named is human Y2 receptor (human) (UniProt P49146). Kind of test: RBA: [125I]-PYY displacement, hY2R/CHO membranes.
Regarding B1, the IC50 Ratio (vs PYY(3-36)) stood at 13.
Still for that read-out and setting: the same measure for B2: 22; for B3: 25.
Still for that read-out and setting: the result for B4 reads 52; that for B5, 19.
As to B6, the IC50 Ratio (vs PYY(3-36)) was determined as 19.
On to B7, for which the IC50 Ratio (vs PYY(3-36)) worked out at 26.
Still for that read-out and setting: the same measure for B8: 70.
On the same count and under the same terms, the result for B9 reads 26; that for B10, 20.
On the same count and under the same terms, the same measure for B11: 31.

Another test addresses T1, human Y2 receptor. The experiment in a line: cell-based or functional assay.
With B12, the “GBA EC50 Ratio ([35S]GTPγS binding)” value is 0.5 EC50 compound/EC50 PYY(3-36).
With B13, the “GBA EC50 Ratio ([35S]GTPγS binding)” value was 2 EC50 compound/EC50 PYY(3-36).

For the origin of these results see patent publication US20120172293A1 (Takeda / Millennium, published 2012).
